Target: MUC2 VWD3 domain alone, produced as a shorter recombinant protein without the VWD1D2 domains (human)

- stoichiometry N: 3
Substance: MUC2 VWD3 domain alone, produced as a shorter recombinant protein without the VWD1D2 domains (domain or fragment)

Reference: publication PMC4868133
